Data set [1] addresses T1, hOGG1 C28A (human, UniProt O15527 1-345, C28A). The experiment in a line: fluorescence polarisation; oxidising; FP at 25°C with 5 nM labelled DNA; EMSA room temp 30 min, 15% native PAGE 0.5x TBE 4°C; interaction buffer 20 mM Tris-HCl pH 7.6, 200 mM NaCl (Fig. S12); reducing (5 mM DTT in EMSA) or oxidising (pre-oxidised hOGG1). The conditions noted are these: protein: recombinant; tags: N-terminal His6 (removed where required); label: 5' AF647 (FP) or Cy3 (EMSA) on bottom strand; blunt.

For data set [2], the target named is T2, hOGG1 K249Q (human, UniProt O15527 1-345, K249Q). The data set is described as above. Conditions: protein: recombinant; tags: N-terminal His6 (removed where required); label: 5' AF647 (FP) or Cy3 (EMSA) on bottom strand; blunt.
T2 sequence (O15527 whole entry K249Q): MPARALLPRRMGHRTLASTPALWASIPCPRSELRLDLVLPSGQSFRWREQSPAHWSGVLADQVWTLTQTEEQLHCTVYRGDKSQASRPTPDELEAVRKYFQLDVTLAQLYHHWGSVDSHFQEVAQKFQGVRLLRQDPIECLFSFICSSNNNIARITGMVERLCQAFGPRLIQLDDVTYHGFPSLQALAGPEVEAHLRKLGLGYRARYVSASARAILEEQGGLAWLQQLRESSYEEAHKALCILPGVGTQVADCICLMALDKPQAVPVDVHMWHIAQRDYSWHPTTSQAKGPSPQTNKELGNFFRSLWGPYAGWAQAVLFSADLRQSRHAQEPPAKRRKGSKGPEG
Data set [3] has as its target T1, hOGG1 C28A. In words: fluorescence polarisation; reducing; FP at 25°C with 5 nM labelled DNA; EMSA room temp 30 min, 15% native PAGE 0.5x TBE 4°C; interaction buffer 20 mM Tris-HCl pH 7.6, 200 mM NaCl (Fig. S12); reducing (5 mM DTT in EMSA) or oxidising (pre-oxidised hOGG1). The conditions noted are these: protein: recombinant; tags: N-terminal His6 (removed where required); label: 5' AF647 (FP) or Cy3 (EMSA) on bottom strand; blunt.

The target of data set [4] is T2, hOGG1 K249Q. The data set is described as above. Conditions: protein: recombinant; tags: N-terminal His6 (removed where required); label: 5' AF647 (FP) or Cy3 (EMSA) on bottom strand; blunt.
In another data set the target is hOGG1 C253A (human, UniProt O15527 1-345, C253A). Described as above. Conditions: protein: recombinant; tags: N-terminal His6 (removed where required); label: 5' AF647 (FP) or Cy3 (EMSA) on bottom strand; blunt.
hOGG1 C253A, sequence (O15527 whole entry C253A): as the sequence (O15527 whole entry K249Q) above, with Q249K, C253A counted along it
Data set [5] addresses T3, hOGG1 wild type;c-Myc (human;human?, UniProt O15527;P01106 1-345;16-454, |). In words: EMSA; 300 nM each; oxidising and reducing (less stable reducing); FP at 25°C with 5 nM labelled DNA; EMSA room temp 30 min, 15% native PAGE 0.5x TBE 4°C; interaction buffer 20 mM Tris-HCl pH 7.6, 200 mM NaCl (Fig. S12); reducing (5 mM DTT in EMSA) or oxidising (pre-oxidised hOGG1). Conditions: protein: recombinant;commercial; tags: N-terminal His6 (removed by protease where required);GST; quantum dot in E-box AFM; label: 5' AF647 (FP) or Cy3 (EMSA) on bottom strand; blunt.

Data set [6] has as its target T3, hOGG1 wild type;c-Myc. In words: EMSA; less stable under reducing conditions; FP at 25°C with 5 nM labelled DNA; EMSA room temp 30 min, 15% native PAGE 0.5x TBE 4°C; interaction buffer 20 mM Tris-HCl pH 7.6, 200 mM NaCl (Fig. S12); reducing (5 mM DTT in EMSA) or oxidising (pre-oxidised hOGG1). The conditions noted are these: protein: recombinant;commercial; tags: N-terminal His6 (removed by protease where required);GST; quantum dot in E-box AFM; label: 5' AF647 (FP) or Cy3 (EMSA) on bottom strand; blunt.

T3 sequence (O15527 whole entry, chain 1 of 2): as the sequence (O15527 whole entry K249Q) above, with Q249K counted along it
T3 sequence (P01106 16-454, chain 2 of 2): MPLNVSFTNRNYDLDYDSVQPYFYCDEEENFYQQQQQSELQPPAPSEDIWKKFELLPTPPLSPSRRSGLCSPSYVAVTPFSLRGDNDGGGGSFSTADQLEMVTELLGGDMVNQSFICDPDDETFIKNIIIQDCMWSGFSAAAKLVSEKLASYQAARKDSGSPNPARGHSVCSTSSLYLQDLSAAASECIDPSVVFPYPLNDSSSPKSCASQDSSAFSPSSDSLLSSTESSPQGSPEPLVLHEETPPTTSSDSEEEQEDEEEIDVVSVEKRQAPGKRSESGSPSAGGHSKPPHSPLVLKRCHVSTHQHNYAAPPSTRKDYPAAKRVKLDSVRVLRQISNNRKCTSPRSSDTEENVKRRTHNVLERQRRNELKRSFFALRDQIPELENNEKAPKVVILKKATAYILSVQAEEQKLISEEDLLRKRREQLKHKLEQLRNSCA
T1 sequence (O15527 whole entry C28A): as the sequence (O15527 whole entry K249Q) above, with C28A, Q249K counted along it

B1: oxoG 48 bp (EMSA/FP) (dsDNA)
DNA 1: GCATGCCTCGAGTCTAGAGGTACCAGATCTGATCCTCTAGAGTCGACC
DNA 2: GGTCGACTCTAGAGGATCAGATCTGGTACCTCTAGACTCGAGGCATGC
modifications: 8-oxoguanine at position 10 of strand 1 (written G)
Regarding B1, the Kd with hOGG1 C28A [1] stood at 61 ± 11 nM; in the data set with hOGG1 K249Q [2], 95 ± 5 nM; with hOGG1 C28A [3] it was 65 ± 8 nM; with hOGG1 K249Q [4], 42 ± 3 nM; in the data set with hOGG1 C253A, 99 ± 24 nM. In the data set with hOGG1 wild type;c-Myc [5], the binding result was “binds”.

B2: undamaged (nsp) 48 bp (dsDNA)
DNA 1: GCATGCCTCGAGTCTAGAGGTACCAGATCTGATCCTCTAGAGTCGACC
DNA 2: GGTCGACTCTAGAGGATCAGATCTGGTACCTCTAGACTCGAGGCATGC
For B2, in the data set with hOGG1 wild type;c-Myc [6], the binding result was “binds”.
